Results published in US20140112930A1 (published 2014).
Residue numbers refer to the chain shown, from its start.

T1: Monomeric hAng-2FD (human, UniProt O15123 282-496)
T1 construct: also called fibrinogen-like domain of human Ang2; Human Ang-2FD
T1 sequence: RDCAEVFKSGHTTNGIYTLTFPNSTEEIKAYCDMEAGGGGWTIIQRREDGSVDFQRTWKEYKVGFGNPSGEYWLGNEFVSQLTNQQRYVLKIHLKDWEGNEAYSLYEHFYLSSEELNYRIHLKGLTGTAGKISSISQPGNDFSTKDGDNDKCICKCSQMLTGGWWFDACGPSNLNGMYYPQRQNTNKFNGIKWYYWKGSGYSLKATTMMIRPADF

T2: wild-type human Ang-2 (hAng-2-WT) (human, UniProt O15123 19-496)
T2 construct: called full-length wild-type; also called Full-length wild-type human Ang-2
T2 sequence: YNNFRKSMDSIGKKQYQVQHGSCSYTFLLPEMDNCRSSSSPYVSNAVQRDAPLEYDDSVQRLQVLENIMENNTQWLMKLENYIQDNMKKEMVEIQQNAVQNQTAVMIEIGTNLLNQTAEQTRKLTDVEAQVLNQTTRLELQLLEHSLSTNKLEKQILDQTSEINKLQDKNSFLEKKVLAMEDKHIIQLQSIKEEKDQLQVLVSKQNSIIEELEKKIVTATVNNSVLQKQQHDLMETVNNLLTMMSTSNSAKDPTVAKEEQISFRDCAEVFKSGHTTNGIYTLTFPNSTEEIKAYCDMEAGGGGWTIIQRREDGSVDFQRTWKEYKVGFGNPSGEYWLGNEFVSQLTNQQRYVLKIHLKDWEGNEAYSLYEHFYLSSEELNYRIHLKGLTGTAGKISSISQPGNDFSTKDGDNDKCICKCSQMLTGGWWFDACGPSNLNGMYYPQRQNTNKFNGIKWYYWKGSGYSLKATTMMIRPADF

B1: H1H706P (antibody, V domains shown)
VH: QVQLVESGGGVVQPGRSLRLSCAASGFTFSSYGMHWVRQAPDKGLEWVAVKWDDGSNKYYADSVKGRFTISRDNSKNTLYLQMNSLRAEDTAVYYCAREGPYDFYSGYGAFDIWGQGTMVTVSS
VL: DIQMTQSPSSLSASVGDRVTITCRASQGISNYLAWFQQKPGKAPKSLIYAASSLQSGVPSKFSGSGSGTDFTLTISSLQPEDFATYYCQQYNSYPRTFGQGTKVEIK
B2: H1H707P (antibody, V domains shown)
VH: B1 VH
VL: not shown
B3: H1H704P (antibody, V domains shown)
VH: QVQLVESGGDVVQPGRSLRLSCAASGFTFSSYGMHWVRQAPGKGLEWVAIIWYDGSNKYYADSVKGRFTISRDNSKNTLYLQMNSLRVEDTAVYSCARDFSISSRHFDYWGQGTLVTVSS
VL: DIQMTQSPSSLSASVGDRVTITCRASQAINNYLAWFQQKPGKAPKSLIYATSNLQSGVPSQFSGSGSGTDYTLTISSLQPEDFATYYCQQYYIYPITFGQGTRLEIK
B4: H1H728N (antibody, V domains shown)
VH: EVQLVESGGDLVQPGGSLRLSCTASGFTFSKYWMTWVRQAPGRGLEWVANIKEDGNEKYFLDSVKGRFTISRDNAKDLLFLQMNSLRGEDTAVYYCVRDRGIEVAGPFDYWGQGTLVTVSS
VL: DIQMTQSPSTLSASVGDRVTVTCRASQTIINWLAWYQQKPGKAPKLLISKASSLESGVPSRFSGSGSGTEFTLTISSLQPDDFATYYCQQYNRYWTFGQGTMVEIK
B5: H1H730N (antibody, V domains shown)
VH: EVQLVESGGGLVQPGGSLRLSCAASGFAFRSYWMTWVRQAPGKGLEWVANIQQDGNDKYYVDSVKGRFTISRDNAKNSLYLQMNSLRAEDTAVYYCARDTGIAEAGPFDYWGQGTLVTVSS
VL: B4 VL with T20S, V21I, N31S, K45R, S49Y, S76N, M102K
B6: H1H743N (antibody, V domains shown)
VH: EVQLLESGGGLVQPGGSLRLSCAASGFTFRKYAMSWVRQAPGKGLEWVSVISVSGGNTYYADSVKGRFTISRDNSKNTLYLQLNSLRAEDTAVYYCAKDLTDIVLMVYVDYWGQGTLVTVSS
VL: DIQMTQSPSSVSASVGDRVTITCRASQDIDRWLAWYQQKPGKAPKLLIYAASSLQSGVPSRFSGSGSGTDFTLTISTLQPEDFATYYCQQANSLPFTFGGGTKVEIK
B7: H1H724N (antibody, V domains shown)
VH: QVQLVESGGGVVQPGRSLRLSCAASGFTLSNYGMHWVRQAPGKGLEWVAVIWHDGSNTYYADSVKGRFTISRDNSKNTLYLQMNSLRAEDTAVYYCTREGLDFWSGYYPNWFDPWGQGTLVTVSS
VL: DIQMTQSPSSLSASVGDRVTITCRASQGIRNDLGWYQQKPGKAPKRLIYAASNLQGGVPSRFSGSGSGTEFTLTISSLQPEDFAAYYCLQHNIYPLTFGGGTKVEIK
B8: H1H732N (antibody, V domains shown)
VH: EVQLVESGGGLVRPGGSLRLSCAASGFTFTNAWMSWVRQAPGKGLEWIGQIKSKTDGGTIDYAAPVKGRFTVSRDDSENTLFLQMNSLKTEDTAVYYCAGNWNYVDFDYWGQGTLVTVSS
VL: B7 VL with G28D, N53S, A85T, I93S, L96F, G100P, E105D
B9: H1H691P (antibody, V domains shown)
VH: EVQLVESGGGLVQPGRSLRLSCAASGFTFDDYAMHWVRQAPGKGLEWVSGISWNSGDIGYADSVKGRFTISRDNAKNSLYLQMNSLRAQDTALYYCAKAYGDYYYFYGMDVWGQGTTVTVS
VL: EIVLTQSPGTLSLSPGERATLSCRASQSVSSSYLAWYQQKPGQAPRLLIFSASSRATGIPDRFSGSGSGTDFTLTISRLEPEDFAVYYCQQYDNSLTFGGGTKVEIK
B10: H1H749N (antibody, V domains shown)
VH: QVQLVESGGGVVQPGRSLRLSCAASGFTFSSYGMHWVRQAPGKGLEWVAVIWYDEFNKYYADSVKGRFTISRDNSKNTLYLQMNSLRAEDTAVYYCARERESGYSYGFDYWGQGTLVTVSS
VL: EIVMTQSPATLSVSPGERATLSCRAGQSVSSNLAWYQQKPGQAPRLLIYGASTRATGIPARFSGSGSGTEFTLTISSLQSEDFAVYYCQQYNNWWTFGQGTKVEIK
B11: H1H742N (antibody, V domains shown)
VH: DVQLLESGGDLVQPGGSLRLSCEASGFTFRNYVMIWVRQAPGKGLEWVSGISNSGGTTHYTDSVKGRFTISRDNSKNTLYLQINSLRAEDTAVYYCAKGYLDTSLIEGNWFDPWGQGTLVTVSS
VL: NIVMTQSPLSLPVTPGEPASISCRSSQSLLHSNGFNYLNWFLQKPGQSPQLLIYLGSNRASGVPDKFSGSGSGTDFTLNINRVEAEDVGIYFCMQTLQTPLTFGGGTKVEIK
B12: H1H750N (antibody, V domains shown)
VH: QVKLVESGGGVVQPGRSLRVSCAASGFTFSSYGMHWVRQAPGKGLEWLAIIWYDGDNKYYSDSVKGRFTISRDNSKNTLYLQMNSLRAEDTAEYYCVRDASIASRFLDYWGQGTLVTVSS
VL: DIQMTQSPSSLSASIGDRVTITCRATQDINNYLAWFQQKPGKAPKSLIYATSNLQSGVPSKFSGSGSGTDYTLTISSLQPEDFSTYYCQQYHSYPLTFGGGTKVEIK

target: T3, Dimeric Monkey Ang-2FD conjugated to human IgG1 (monkey (Macca fascicularis); human); assay: SPR, captured Ab, RT
T3 construct: also called Monkey Ang-2FD-hFc
Protocol: (§1) Antibody was captured on a goat anti-mouse IgG polyclonal antibody surface, a goat anti-human κ polyclonal antibody (Southern Biotech, Birmingham, Ala.) surface or a goat anti-human IgG polyclonal antibody (Jackson Immuno Research Lab, West Grove, Pa.) surface created through direct amine coupling to a BIACORE™ CM5 sensor chip to form a captured antibody surface. […] Antigen-antibody binding and dissociation were monitored in real time at room temperature. Kinetic analysis was performed to calculate KD and half-life of antigen/antibody complex dissociation.

T3 sequence (chain, as listed by the source limits assumed): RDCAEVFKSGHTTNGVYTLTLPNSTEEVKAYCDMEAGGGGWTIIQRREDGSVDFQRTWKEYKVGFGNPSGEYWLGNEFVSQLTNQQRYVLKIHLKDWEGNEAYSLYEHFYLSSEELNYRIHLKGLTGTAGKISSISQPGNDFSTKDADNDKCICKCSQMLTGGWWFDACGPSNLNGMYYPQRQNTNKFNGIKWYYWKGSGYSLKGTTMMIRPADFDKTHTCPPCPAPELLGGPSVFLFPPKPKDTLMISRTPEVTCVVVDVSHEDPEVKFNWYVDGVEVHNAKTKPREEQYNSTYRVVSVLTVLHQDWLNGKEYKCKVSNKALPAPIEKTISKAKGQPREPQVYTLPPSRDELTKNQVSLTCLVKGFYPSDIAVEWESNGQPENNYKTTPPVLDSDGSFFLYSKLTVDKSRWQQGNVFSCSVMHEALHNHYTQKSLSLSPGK

Row | Kd [nM] | T1/2 [h] | Binder
1 | 0.164 | 0.888 | B1
2 | 0.283 | 0.372 | B2
3 | 0.818 | 0.558 | B3
4 | 2 | 1.28 | B4
5 | 3.4 | 1.45 | B5
6 | 0.0965 | 13 | B6
7 | 0.239 | 2.88 | B7
8 | 0.439 | 1.97 | B8
9 | 0.29 | 0.683 | B9
10 | 0.407 | 2.38 | B10
11 | 0.683 | 1.55 | B11
12 | 0.199 | 4.07 | B12

target: T4, Dimeric Mouse Ang-2FD conjugated to human IgG1 (mouse (Mus musculus); human); assay: SPR, captured Ab, RT
T4 construct: also called Mouse Ang-2FD-hFc
Protocol: as §1

T4 sequence (chain, as listed by the source limits assumed): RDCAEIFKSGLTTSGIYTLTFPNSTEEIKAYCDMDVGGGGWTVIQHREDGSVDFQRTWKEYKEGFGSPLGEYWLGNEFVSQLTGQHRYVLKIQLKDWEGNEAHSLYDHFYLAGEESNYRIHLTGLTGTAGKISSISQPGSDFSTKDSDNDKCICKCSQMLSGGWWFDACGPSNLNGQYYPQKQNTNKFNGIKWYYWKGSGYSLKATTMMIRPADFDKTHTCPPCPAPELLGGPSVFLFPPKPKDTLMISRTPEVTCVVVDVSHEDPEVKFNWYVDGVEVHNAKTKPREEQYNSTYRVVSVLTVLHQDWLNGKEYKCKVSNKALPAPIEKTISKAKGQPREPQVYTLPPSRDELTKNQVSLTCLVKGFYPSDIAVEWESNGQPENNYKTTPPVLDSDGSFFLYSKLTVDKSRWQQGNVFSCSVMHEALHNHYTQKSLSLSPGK

Row | Kd [nM] | T1/2 [h] | Binder
13 | 0.357 | 0.783 | B1
14 | 0.328 | 0.573 | B2
15 | 0.484 | 1.03 | B3
16 | 5.76 | 0.333 | B4
17 | 0.0971 | 1.5 | B5
18 | 0.124 | 3.88 | B6
19 | 0.185 | 1.4 | B7
20 | 0.529 | 0.85 | B8
21 | 0.22 | 0.73 | B9
22 | 0.177 | 1.6 | B10
23 | 0.276 | 0.967 | B11
24 | 0.218 | 2.02 | B12

target: T5, Dimeric Human Ang-2FD conjugated to human IgG1 (human); assay: SPR, captured Ab, RT
T5 construct: also called Human Ang-2FD-hFc; hAng-2FD-hFc
Protocol: as §1

Row | Kd [nM] | T1/2 [h] | Binder
25 | 0.201 | 0.84 | B1
26 | 0.262 | 0.443 | B2
27 | 0.331 | 1.43 | B3
28 | 0.162 | 1.35 | B4
29 | 0.234 | 1.03 | B5
30 | 0.0882 | 4.23 | B6
31 | 0.115 | 1.78 | B7
32 | 0.386 | 0.95 | B8
33 | 0.22 | 0.642 | B9
34 | 0.118 | 1.82 | B10
35 | 0.186 | 1.08 | B11
36 | 0.164 | 2.12 | B12

target: T1, Monomeric hAng-2FD; assay: SPR, captured Ab

Row | T1/2 [h] | Kd [nM] | Binder
37 | 0.017 |  | B1
38 | 0.0552 | 0.39 | B3
39 | 0.0977 | 1.18 | B4
40 | 0.0573 | 2.84 | B5
41 | 0.55 | 2.35 | B6
42 | 0.222 | 2.4 | B7
43 | 0.00367 | 264 | B8
44 | 0.558 | 1.13 | B10
45 | 0.0382 | 486 | B11
46 | 0.503 | 0.787 | B12

target: T2, wild-type human Ang-2 (hAng-2-WT); assay: SPR, captured Ab

Row | Kd [nM] | T1/2 [h] | Binder
47 | 0.0274 | 11 | B1
48 | 0.0362 | 12.5 | B3
49 | 0.043 | 9.43 | B4
50 | 0.0475 | 8.9 | B5
51 | 0.00948 | 65.5 | B6
52 | 0.0226 | 14.9 | B7
53 | 0.202 | 4.4 | B8
54 | 0.0125 | 30.6 | B10
55 | 0.0449 | 11.1 | B11
56 | 0.0095 | 74 | B12

target: T6, human bow-Ang-2 tetrameric construct (hBA2) (human); assay: SPR, captured Ab
T6 construct: also called human BA2; hBA2-hIgG1
T6 sequence (chain, as listed by the source limits assumed): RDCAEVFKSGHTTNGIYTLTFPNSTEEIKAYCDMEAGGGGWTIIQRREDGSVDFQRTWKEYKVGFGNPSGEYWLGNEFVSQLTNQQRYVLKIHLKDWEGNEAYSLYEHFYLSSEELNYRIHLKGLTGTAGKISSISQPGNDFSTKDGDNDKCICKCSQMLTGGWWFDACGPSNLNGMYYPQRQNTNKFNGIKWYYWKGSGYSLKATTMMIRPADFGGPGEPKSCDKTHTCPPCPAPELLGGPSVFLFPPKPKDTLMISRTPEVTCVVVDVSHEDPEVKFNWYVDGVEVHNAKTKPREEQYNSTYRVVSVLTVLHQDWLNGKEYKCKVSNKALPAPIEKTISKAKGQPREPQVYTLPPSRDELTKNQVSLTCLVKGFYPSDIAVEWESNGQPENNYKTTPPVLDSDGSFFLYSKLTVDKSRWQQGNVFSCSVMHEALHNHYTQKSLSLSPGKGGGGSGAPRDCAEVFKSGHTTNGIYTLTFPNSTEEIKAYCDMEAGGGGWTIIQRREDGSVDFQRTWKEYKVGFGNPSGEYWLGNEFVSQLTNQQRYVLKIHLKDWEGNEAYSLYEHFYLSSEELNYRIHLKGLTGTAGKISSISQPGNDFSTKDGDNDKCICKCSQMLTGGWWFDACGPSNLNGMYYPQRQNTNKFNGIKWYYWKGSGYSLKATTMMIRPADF

Row | Kd [nM] | T1/2 [h] | Binder
57 | 0.0791 | 1.06 | B1
58 | 0.0939 | 1.96 | B3
59 | 0.0418 | 3.08 | B4
60 | 0.0559 | 2.53 | B5
61 | 0.00971 | 18.6 | B6
62 | 0.0233 | 5.38 | B7
63 | 0.132 | 1.22 | B8
64 | 0.0325 | 3.92 | B10
65 | 0.0721 | 1.45 | B11
66 | 0.0369 | 4.73 | B12
